Test results published in the supplement of paper PMC11246515.
± gives the standard deviation of the averaged measurements.

Assay: total protein half-life in vivo (active degradation + dilution); higher = more stable protein
[1] = E. coli NCM3722 delta-clpP delta-lon delta-hslV, growth: N-lim chemostat, doubling time 6 h
[2] = E. coli NCM3722 delta-hslV, growth: N-lim chemostat, doubling time 6 h
[3] = E. coli NCM3722 delta-lon, growth: N-lim chemostat, doubling time 6 h
[4] = E. coli NCM3722 delta-smpB, growth: N-lim chemostat, doubling time 6 h
[5] = wild type E. coli NCM3722, growth: C-lim chemostat, doubling time 3 h
[6] = wild type E. coli NCM3722, growth: C-lim chemostat, doubling time 6 h
[7] = wild type E. coli NCM3722, growth: C-lim chemostat, doubling time 12 h
[8] = wild type E. coli NCM3722, growth: N-lim chemostat, doubling time 6 h
[9] = wild type E. coli NCM3722, growth: N-lim chemostat, doubling time 12 h
[10] = wild type E. coli NCM3722, growth: P-lim chemostat, doubling time 6 h
[11] = wild type E. coli NCM3722, growth: P-lim chemostat, doubling time 12 h

| Sequence | total protein half-life in vivo [1] [h] | total protein half-life in vivo [2] [h] | total protein half-life in vivo [3] [h] | total protein half-life in vivo [4] [h] | total protein half-life in vivo [5] [h] | total protein half-life in vivo [6] [h] | total protein half-life in vivo [7] [h] | total protein half-life in vivo [8] [h] | total protein half-life in vivo [9] [h] | total protein half-life in vivo [10] [h] | total protein half-life in vivo [11] [h] | total protein half-life in vivo (E. coli NCM3722 delta-clpP, growth: N-lim chemostat, doubling time 6 h) [h] |
| --- | --- | --- | --- | --- | --- | --- | --- | --- | --- | --- | --- | --- |
| MKKLQIAVGIIRNENNEIFITRRAADAHMANKLEFPGGKIEMGETPEQAVVRELQEEVGITPQHFSLFEKLEYEFPDRHITLWFWLVERWEGEPWGKEGQPGEWMSLVGLNADDFPPANEPVIAKLKRL | 4.64 ± 0.53 | 4.58 ± 0.57 | 5.1 | 5.16 ± 1.3 | 3.35 ± 0.21 | 5.04 ± 0.078 | 9.03 ± 0.32 | 4.16 ± 0.41 | 6.87 ± 0.51 | 4.48 ± 0.6 | 11 ± 1.5 |  |
| MKKLRIGVVGLGGIAQKAWLPVLAAASDWTLQGAWSPTRAKALPICESWRIPYADSLSSLAASCDAVFVHSSTASHFDVVSTLLNAGVHVCVDKPLAENLRDAERLVELAARKKLTLMVGFNRRFAPLYGELKTQLATAASLRMDKHRSNSVGPHDLYFTLLDDYLHVVDTALWLSGGKASLDGGTLLTNDAGEMLFAEHHFSAGPLQITTCMHRRAGSQRETVQAVTDGALIDITDMREWREERGQGVVHKPIPGWQSTLEQRGFVGCARHFIECVQNQTVPQTAGEQAVLAQRIVDKIWRDAMSE | 5.47 ± 0.24 | 5.7 ± 0.25 | 6.04 ± 0.96 | 4.86 ± 0.11 | 3.12 ± 0.51 | 5.88 ± 0.12 | 11 ± 0.34 | 4.96 ± 0.26 | 9.402 ± 0.04 | 6.2 ± 0.17 | 12 ± 0.19 | 5.38 ± 1.1 |
| MKKLTIGLIGNPNSGKTTLFNQLTGSRQRVGNWAGVTVERKEGQFSTTDHQVTLVDLPGTYSLTTISSQTSLDEQIACHYILSGDADLLINVVDASNLERNLYLTLQLLELGIPCIVALNMLDIAEKQNIRIEIDALSARLGCPVIPLVSTRGRGIEALKLAIDRYKANENVELVHYAQPLLNEADSLAKVMPSDIPLKQRRWLGLQMLEGDIYSRAYAGEASQHLDAALARLRNEMDDPALHIADARYQCIAAICDVVSNTLTAEPSRFTTAVDKIVLNRFLGLPIFLFVMYLMFLLAINIGGALQPLFDVGSVALFVHGIQWIGYTLHFPDWLTIFLAQGLGGGINTVLPLVPQIGMMYLFLSFLEDSGYMARAAFVMDRLMQALGLPGKSFVPLIVGFGCNVPSVMGARTLDAPRERLMTIMMAPFMSCGARLAIFAVFAAAFFGQNGALAVFSLYMLGIVMAVLTGLMLKYTIMRGEATPFVMELPVYHVPHVKSLIIQTWQRLKGFVLRAGKVIIIVSIFLSAFNSFSLSGKIVDNINDSALASVSRVITPVFKPIGVHEDNWQATVGLFTGAMAKEVVVGTLNTLYTAENIQDEEFNPAEFNLGEELFSAIDETWQSLKDTFSLSVLMNPIEASKGDGEMGTGAMGVMDQKFGSAAAAYSYLIFVLLYVPCISVMGAIARESSRGWMGFSILWGLNIAYSLATLFYQVASYSQHPTYSLVCILAVILFNIVVIGLLRRARSRVDIELLATRKSVSSCCAASTTGDCH |  | 0.616 |  | 0.941 ± 0.47 | 0.812 ± 0.12 | 0.749 | 1.58 ± 0.19 | 0.841 |  |  | 4.22 |  |
| MKKLTVAALAVTTLLSGSAFAHEAGEFFMRAGSATVRPTEGAGGTLGSLGGFSVTNNTQLGLTFTYMATDNIGVELLAATPFRHKIGTRATGDIATVHHLPPTLMAQWYFGDASSKFRPYVGAGINYTTFFDNGFNDHGKEAGLSDLSLKDSWGAAGQVGVDYLINRDWLVNMSVWYMDIDTTANYKLGGAQQHDSVRLDPWVFMFSAGYRF [P0A915] | 6.65 ± 0.21 | 6.45 ± 0.39 |  | 6.21 ± 1.9 | 3.53 ± 0.14 | 7.52 ± 0.61 | 12.6 ± 1.5 | 7.26 | > 16 | 6.15 | 15.44 ± 0.068 |  |
